Consider four molecules from patent US7057015B1, “Hormone receptor functional dimers and methods of their use” (The Salk Institute for Biological Studies, priority 1999, dated 2006).

In data set [1] the test system is U0E (Usp-EcR fusion, 0 linker segments) (Drosophila melanogaster). Put plainly: EMSA. As to conditions: barely detectable endodimer band; 1 uM muristerone A, 23 C. In general terms: A gel shift assay detects complexes by their altered migration in electrophoresis.
For data set [2], the system named is E0R (EcR-RXR fusion, 0 linker segments) (Drosophila melanogaster / Homo sapiens). Briefly: EMSA. To be noted: 1 uM muristerone A, 23 C.
Data set [3] has as its system E5R (EcR-RXR fusion, 5 linker segments) (Drosophila melanogaster / Homo sapiens). Put plainly: EMSA. To be noted: 1 uM muristerone A, 23 C.
Data set [4] concerns R0E (RXR-EcR fusion, 0 linker segments) (Homo sapiens / Drosophila melanogaster). Briefly: EMSA. To be noted: 1 uM muristerone A, 23 C.
The subject of data set [5] is E5U (EcR-Usp fusion, 5 linker segments) (Drosophila melanogaster). Put plainly: EMSA. To be noted: nearly ligand-insensitive; not significantly above E0U.
The test system of data set [6] is E0U (EcR-Usp fusion, 0 linker segments) (Drosophila melanogaster). Put plainly: EMSA. As to conditions: nearly ligand-insensitive.
The subject of data set [7] is R5E (RXR-EcR fusion, 5 linker segments) (Homo sapiens / Drosophila melanogaster). Put plainly: EMSA. To be noted: 1 uM muristerone A, 23 C.
Data set [8] concerns mammals and other non-insect species. As to conditions: in vivo; cited from earlier work.
For data set [9], the target named is T1, Drosophila melanogaster ecdysone receptor (monomeric) (Drosophila melanogaster, UniProt P34021 1-878).
T1 sequence (looked up): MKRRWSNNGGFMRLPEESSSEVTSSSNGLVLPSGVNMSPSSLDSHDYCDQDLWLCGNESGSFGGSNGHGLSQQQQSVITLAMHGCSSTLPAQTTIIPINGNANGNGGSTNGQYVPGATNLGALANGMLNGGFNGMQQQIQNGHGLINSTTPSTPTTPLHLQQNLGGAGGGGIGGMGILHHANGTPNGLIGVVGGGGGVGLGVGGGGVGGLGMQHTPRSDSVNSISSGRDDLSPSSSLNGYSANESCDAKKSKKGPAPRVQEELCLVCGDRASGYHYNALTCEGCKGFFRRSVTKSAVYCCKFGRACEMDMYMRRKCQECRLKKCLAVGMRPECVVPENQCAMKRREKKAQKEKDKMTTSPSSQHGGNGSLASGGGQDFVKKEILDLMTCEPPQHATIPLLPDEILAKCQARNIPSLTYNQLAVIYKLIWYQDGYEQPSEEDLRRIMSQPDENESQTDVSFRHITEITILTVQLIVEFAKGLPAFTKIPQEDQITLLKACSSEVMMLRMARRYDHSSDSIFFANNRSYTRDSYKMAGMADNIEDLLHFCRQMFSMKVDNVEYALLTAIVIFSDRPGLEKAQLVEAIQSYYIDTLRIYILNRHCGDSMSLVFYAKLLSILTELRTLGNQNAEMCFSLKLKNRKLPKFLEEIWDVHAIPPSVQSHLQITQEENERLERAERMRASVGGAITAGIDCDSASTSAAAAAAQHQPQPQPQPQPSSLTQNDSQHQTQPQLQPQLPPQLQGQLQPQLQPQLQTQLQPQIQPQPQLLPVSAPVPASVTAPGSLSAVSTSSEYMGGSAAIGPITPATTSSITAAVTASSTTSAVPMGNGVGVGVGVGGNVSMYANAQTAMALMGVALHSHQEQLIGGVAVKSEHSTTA
Briefly: cell-based or functional assay.

In data set [10] the test system is E4-luc reporter plasmid in 293 cells. Briefly: Transient transfection luciferase transactivation assay with E4-luc reporter. It is filed as cell-based, human. The protocol:
For quantitative transactivation analysis, transfections were performed in triplicate in 24-well plates by calcium-phosphate co-precipitation with 100 ng of an individual receptor, the reporter plasmid E4-luc, and pCH110 (SV40-β-galactosidase) as an internal control. Briefly, the reporter plasmid, E4-luc, was constructed of 4-tandem EcREs inserted upstream of a thymidine kinase gene minimal promoter directing luciferase expression. […] 1 μM ligand was added at the time of transfection, and the cells were harvested for luciferase assay 40 hours later. Harvested cell extracts were split, and one part was analyzed in a luminometer for luciferase activity and the other part was analyzed for β-galactosidase activity using an orthonitrophenyl galactoside assay by standard methods. Luciferase levels were normalized to β-galactosidase values to correct for slight differences in transfection efficiency.

For data set [11], the system named is EcRE probe. Put plainly: Gel mobility shift analysis of EcRE probe binding by FDs. As to conditions: 1 μM murA vs vehicle, extracts of transfected 293 cells. The protocol: Preparation of the invention fusion protein FDs for gel shift analysis by transient transfection into 293 cells was as follows: 300 ng of individual receptor plasmids and 100 ng pCH110 internal control plasmid were cotransfected into 293 cells at 60% density in Costar 6-well plates. One well of each group was treated with 1 μM murA as ligand at the time of transfection. 40 hours later, extracts of transfected 293 cells were made by scraping the cells from a well into a low volume of phosphate buffered saline, pelleting the cells, resuspending them in 200 μl 5×gel shift buffer (Yao et al., supra 1992), and sonicating with a Kontes cell disrupter for three 10-sec. bursts at output level 30. The extracts were then centrifuged to clear the lysate and the protein was quantified. […]
Comparative gel mobility shift analyses of FDs with control in vitro translated receptor complexes were performed using double stranded EcRE probes and labeled by Klenow fill using ^32P-dCTP and cold dGAT by standard methods. […] Band volumes were quantified using laser scanning densitometry.
An autoradiogram of FDs and controls treated either with control vehicle or with 1 μM of murA as ligand was made with markers indicating endodimer FD or wild type receptor-binding complex band shifts. […] FIG. 2A is a graph that quantifies endodimer-sized band volumes obtained from the autoradiogram.

Turning to EcRE probe, the binding signal (fold increase with ligand) in [1] is 2; in data set [2] it was 7; in [3] it was 11; in data set [4], 4; in [7], 5. For the same molecule, the binding signal (fold vs UNE constructs (average of ENU)) in data set [5] and in data set [6] was 10 each time.
Turning to `CCc1ccc(C(=O)NN(C(=O)c2cc(C)cc(C)c2)C(C)(C)C)cc1` [Tebufenozide, tebufenozide], the “toxicity to mammals and other non-insect species” value in data set [8] is listed as “very low toxicity”.

B1: VP16-fused monomeric RXR (other)
chain: MDTKHFLPLDFSTQVNSSLTSPTGRGSMAAPSLHPSLGPGIGSPGQLHSPISTLSSPINGMGPPFSVISSPMGPHSMSVPTTPTLGFSTGSPQLSSPMNPVSSSEDIKPPLGLNGVLKVPAHPSGNMASFTKHICAICGDRSSGKHYGVYSCEGCKGFFKRTVRKDLTYTCRDNKDCLIDKRQRNRCQYCRYQKCLAMGMKREAVQEERQRGKDRNENEVESTSSANEDMPVERILEAELAVEPKTETYVEANMGLNPSSPNDPVTNICQAADKQLFTLVEWAKRIPHFSELPLDDQVILLRAGWNELLIASFSHRSIAVKDGILLATGLHVHRNSAHSAGVGAIFDRVLTELVSKMRDMQMDKTELGCLRAIVLFNPDSKGLSNPAEVEALREKVYASLEAYCKHKYPEQPGRFAKLLLRLPALRSIGLKCLEHLFFFKLIGDTPIDTFLMEMLEAPHQMT
As for B1, the “E-mediated transactivation of the E4-luc luciferase reporter in 293 cells” value in data set [9] was greater than 5 fold.

B2: E5R: fusion protein: Drosophila EcR at amino terminus, 5 linker segments, RXR (protein)
chain: MKRRWSNNGGFMRLPEESSSEVTSSSNGLVLPSGVNMSPSSLDSHDYCDQDLWLCGNESGSFGGSNGHGLSQQQQSVITLAMHGCSSTLPAQTTIIPINGNANGNGGSTNGQYVPGATNLGALANGMLNGGFNGMQQQIQNGHGLINSTTPSTPTTPLHLQQNLGGAGGGGIGGMGILHHANGTPNGLIGVVGGGGGVGLGVGGGGVGGLGMQHTPRSDSVNSISSGRDDLSPSSSLNGYSANESCDAKKSKKGPAPRVQEELCLVCGDRASGYHYNALTCEGCKGFFRRSVTKSAVYCCKFGRACEMDMYMRRKCQECRLKKCLAVGMRPECVVPENQCAMKRREKKAQKEKDKMTTSPSSQHGGNGSLASGGGQDFVKKEILDLMTCEPPQHATIPLLPDEILAKCQARNIPSLTYNQLAVIYKLIWYQDGYEQPSEEDLRRIMSQPDENESQTDVSFRHITEITILTVQLIVEFAKGLPAFTKIPQEDQITLLKACSSEVMMLRMARRYDHSSDSIFFANNRSYTRDSYKMAGMADNIEDLLHFCRQMFSMKVDNVEYALLTAIVIFSDRPGLEKAQLVEAIQSYYIDTLRIYILNRHCGDSMSLVFYAKLLSILTELRTLGNQNAEMCFSLKLKNRKLPKFLEEIWDVHAIPPSVQSHLQITQEENERLERAERMRASVGGAITAGIDCDSASTSAAAAAAQHQPQPQPQPQPSSLTQNDSQHQTQPQLQPQLPPQLQGQLQPQLQPQLQTQLQPQIQPQPQLLPVSAPVPASVTAPGSLSAVSTSSEYMGGSAAIGPITPATTSSITAAVTASSTTSAVPMGNGVGVGVGVGGNVSMYANAQTAMALMGVALHSHQEQLIGGVAVKSEHSTTAGPTGPGPGGGSGGGSGTGPGGGSGGGSGTGPGGGSGGGSGTGPGGGSGGGSGTGPGGGSGGGSGTMDTKHFLPLDFSTQVNSSLTSPTGRGSMAAPSLHPSLGPGIGSPGQLHSPISTLSSPINGMGPPFSVISSPMGPHSMSVPTTPTLGFSTGSPQLSSPMNPVSSSEDIKPPLGLNGVLKVPAHPSGNMASFTKHICAICGDRSSGKHYGVYSCEGCKGFFKRTVRKDLTYTCRDNKDCLIDKRQRNRCQYCRYQKCLAMGMKREAVQEERQRGKDRNENEVESTSSANEDMPVERILEAELAVEPKTETYVEANMGLNPSSPNDPVTNICQAADKQLFTLVEWAKRIPHFSELPLDDQVILLRAGWNELLIASFSHRSIAVKDGILLATGLHVHRNSAHSAGVGAIFDRVLTELVSKMRDMQMDKTELGCLRAIVLFNPDSKGLSNPAEVEALREKVYASLEAYCKHKYPEQPGRFAKLLLRLPALRSIGLKCLEHLFFFKLIGDTPIDTFLMEMLEAPHQMT
As to B2, the “Rel. Ind. = relative induction of individual receptor groups” value in data set [10] (+ligand (1 μM murA) versus −ligand) is on record as 8.4 fold. Besides, the “+Lig/E4 = luciferase activity vs. reporter only with ligand” value in data set [10] (transiently co-transfected 293 cells, 1 μM murA, relative to E4-luc reporter only) amounted to 3.89. Further, the “−Lig/E4 = luciferase activity vs. reporter only without ligand” value in data set [10] (transiently co-transfected 293 cells, without ligand, relative to E4-luc reporter only) stood at 0.46. In addition, the “relative-fold increase in response element binding (endodimer band) resulting from ligand treatment” value in data set [11] is recorded as 11 fold.
